{"source": "patent US20120082688A1", "about": "“In Vitro Generation of Myeloid Derived Suppressor Cells” (MOUNT SINAI SCHOOL OF MEDICINE, priority 2008, published 2012)", "key": {"[1]": {"tested_on": "HS-MDSC- and TD-MDSC-mediated suppression of T-cell proliferation", "test": "Suppression assay with iNOS inhibitor / arginase inhibitor: MDSCs co-incubated with B6 splenocytes, anti-CD3/anti-CD28, [3H]-thymidine", "format": "cell-based, mouse", "description": "The suppressive activity of MDSCs was assessed either by co-culturing 1×10^5 129SvEv (using B6 for HSC-MDSCs comparison) splenocytes with various numbers of CD115^+ cells or […] in the presence of anti-CD3/anti-CD28 (0.5 μg/ml) or by co-culturing 2×10^5 129SvEv splenocytes (responder) with an equal number of irradiated (25 Gy) BALB/c splenocytes (stimulator) in the presence of various numbers of CD115^+ or CD115^− cells for 4 days. [^3H]-thymidine was added for the last 8 hours of incubation. For Treg induction, 4×10^6/well of 129SvEv (B6 for HSC-MDSCs) splenocytes and 1×10^6 CD115^+ or CD115^− cells were cocultured for 5 days in the presence of anti-CD3/anti-CD28 (0.5 μg/ml). Foxp3 expression was determined by intracellular staining and NO level in the supernatant was measured by Greiss reagents (Sigma-Aldrich, St. Louis, Mo.).\nTo delineate which of the aforementioned suppressive mechanism(s) play a major role, the functional activity of HS-MDSCs was evaluated when specific pathway(s) were interfered. To evaluate the role of iNOS, HS-MDSCs (developed from Lin− B6 BM cells) or TD-MDSCs were co-incubated with B6 splenocytes at a 1:2 ratio in the absence or presence of various concentrations of L-NMMA (L) or NOHA (N), or combination of L-NMMA and NOHA. Cells were stimulated with anti-CD3/anti-CD28 and [3H]-thymidine was pulsed for the final 8 hours of a 3-day culture."}, "HoxB4 ES cells": {"tested_on": "HoxB4 ES cells", "test": "Differentiation of HoxB4 ES cells on OP9 stroma in M2 cytokine mix with added cytokines, FACS", "format": "cell-based, mouse", "description": "Next, EB-derived cells were subjected to further differentiation by co-culturing them with OP9 stroma, an M-CSF-deficient cell line that has been widely used for in vitro differentiation of ES cells. For this, day 6 EBs (except otherwise specified) were trypsinized, and dissociated cells were seeded onto semiconfluent OP9 monolayers (irradiated immediately before coculture) at a density of 1×10^5/ml (2 ml/well, 6-well plate), and cultured in medium containing IMDM, 15% FCS (BenchMark, Gemcell), 2 mM L-glutamine, 100 U/mL penicillin and 100 μg/mL streptomycin, 1 ug/ml doxycycline, 1.5×10^−4M MTG, plus M1 cytokine mix composed of 1% c-kit Ligand (KL; CM), […] murine IL-6, and 0.5% WEHI (IL-3, CM). 2 days later, the medium was removed and replaced with 3 ml of fresh medium containing M2 cytokine mix consisting of 1% KL supernant, 0.5% murine thrombopoietin (TPO, CM), 40 ng/ml murine VEGF, 50 ng/ml murine Flt-3L or with medium containing M2 plus 10 ng/ml murine M-CSF (or M2+M-CSF) (all mouse recombinant cytokines were purchased from Peprotec Inc.), and medium was changed every other day thereafter. Unless otherwise specified, non-adherent and loosely attached cells were harvested after 10 days coculture in M2+M-CSF and used for morphologic, phenotypic, developmental, and functional analysis.\nTo enhance the production of ES cell-derived myeloid cells, additional cytokines were tested, including the colony-stimulating factor family members M-CSF and GM-CSF. […] For experiments in FIGS. 1C and D, Hoxb4 ES cells were differentiated with the same procedure as described in FIG. 1A, but in the last step cells were cultured for 10 day in M2 or M2 supplanted with M-CSF or GM-CSF (FIG. 1C) or M2 plus various concentration of M-CSF (FIG. 1D)."}, "[2]": {"details": "cytokine added to M2 cultures, 10 days"}}, "note": "Entries after “also recorded” stand apart in the source; their conditions may differ."}
{"molecule": "CNC(=N)NCCC[C@H](N)C(=O)O", "note": "[L-NMMA, N^G-monomethyl-L-arginine]", "values": [{"measurement": "reversal of MDSC suppression of T cells", "setting": "[1]; 5 μM, MDSC:splenocyte 1:2, P<0.05 HSC MDSC, P<0.01 TD-MDSC", "result": "substantially reversed"}, {"measurement": "reversal of suppression of HS- and TD-MDSCs against T-cell proliferation", "setting": "[1]; various concentrations, dose-dependent manner", "result": "partially but significantly reversed"}]}
{"molecule": "N=C(NO)NCCC[C@H](N)C(=O)O", "note": "[NOHA]", "values": [{"measurement": "interference with suppressive activity of HSC-MDSC or TD-MDSC", "setting": "[1]; 500 μM, MDSC:splenocyte 1:2, P>0.05", "result": "did not interfere significantly; also recorded: minimal effects"}]}
{"molecule": "granulocyte macrophage colony stimulating factor (protein, UniProt P01587 18-141, looked up, colony-stimulating factor family cytokine added to M2 cultures) Granulocyte-macrophage …: APTRSPITVTRPWKHVEAIKEALNLLDDMPVTLNEEVEVVSNEFSFKKLTCVQTRLKIFEQGLRGNFTKLKGALNMTASYYQTYCPPTPETDCETQVTTYADFIDSLKTFLTDIPFECKKPGQK", "values": [{"measurement": "change of CD115+Ly-6C^+ cells", "setting": "HoxB4 ES cells; [2]", "result": "dramatic decrease"}, {"measurement": "change of CD115^−Ly-6C^+ cells", "setting": "HoxB4 ES cells; [2]", "result": "marked increase"}]}
{"molecule": "macrophage colony-stimulating factor (protein, UniProt P07141 33-552, looked up, murine recombinant cytokine added to M2 cocktail) Macrophage colony-stimulating …: KEVSEHCSHMIGNGHLKVLQQLIDSQMETSCQIAFEFVDQEQLDDPVCYLKKAFFLVQDIIDETMRFKDNTPNANATERLQELSNNLNSCFTKDYEEQNKACVRTFHETPLQLLEKIKNFFNETKNLLEKDWNIFTKNCNNSFAKCSSRDVVTKPDCNCLYPKATPSSDPASASPHQPPAPSMAPLAGLAWDDSQRTEGSSLLPSELPLRIEDPGSAKQRPPRSTCQTLESTEQPNHGDRLTEDSQPHPSAGGPVPGVEDILESSLGTNWVLEEASGEASEGFLTQEAKFSPSTPVGGSIQAETDRPRALSASPFPKSTEDQKPVDITDRPLTEVNPMRPIGQTQNNTPEKTDGTSTLREDHQEPGSPHIATPNPQRVSNSATPVAQLLLPKSHSWGIVLPLGELEGKRSTRDRRSPAELEGGSASEGAARPVARFNSIPLTDTGHVEQHEGSSDPQIPESVFHLLVPGIILVLLTVGGLLFYKWKWRSHRDPQTLDSSVGRPEDSSLTQDEDRQVELPV", "values": [{"measurement": "production of both CD115^+ populations", "setting": "HoxB4 ES cells; M2 plus cytokine, 10 days, dose-dependent", "result": "significantly augmented"}, {"measurement": "increase of frequency of both CD115 positive populations", "setting": "HoxB4 ES cells; added along with M2", "result": "over 2 fold"}, {"measurement": "percentages of CD115^+ cells", "setting": "HoxB4 ES cells; higher concentration, 20 ng/ml", "result": "decreased"}]}
